Measured values as given in publication PMC9077843.

B1: B3GNT5 (β1,3-N-acetylglucosaminyltransferase V): 4NQ (protein)
parent chain: MRMLVSGRRVKKWQLIIQLFATCFLASLMFFWEPIDNHIVSHMKSYSYRYLINSYDFVNDTLSLKHTSAGPRYQYLINHKEKCQAQDVLLLLFVKTAPENYDRRSGIRRTWGNENYVRSQLNANIKTLFALGTPNPLEGEELQRKLAWEDQRYNDIIQQDFVDSFYNLTLKLLMQFSWANTYCPHAKFLMTADDDIFIHMPNLIEYLQSLEQIGVQDFWIGRVHRGAPPIRDKSSKYYVSYEMYQWPAYPDYTAGAAYVISGDVAAKVYEASQTLNSSLYIDDVFMGLCANKIGIVPQDHVFFSGEGKTPYHPCIYEKMMTSHGHLEDLQDLWKNATDPKVKTISKGFFGQIYCRLMKIILLCKISYVDTYPCRAAFI
B2: B3GNT5 (β1,3-N-acetylglucosaminyltransferase V): tunicamycin (TM, 2.5 μg/mL, 24 h) (protein)
parent chain: B1 parent chain

Legend:
Western blot, HEK293T = conditions: glycan lost; control: B3GNT5-WT-Flag
[1] = Western blot, MDA-MB231 and BT549, B3GNT5-WT-mcherry; conditions: glycan lost; control: untreated

Row | Protein | expression_or_secretion (Western blot, HEK293T) | expression_or_secretion [1]
1 | B1 | decreases | 
2 | B2 |  | decreases
